Data on one molecule can be found in PMC4793259 (Journal of Extracellular Vesicles, 2016).

The assay has as its target epidermal growth factor receptor (Homo sapiens (A431, HeLa cells), UniProt P00533). Description: flow cytometry on cells.

B1: GPI-anchored HA-tagged R2 nanobody (DAF-R2) displayed on Neuro2A extracellular vesicles (VHH)
VHH: QVQLQESGGGLVQAGGSLRLSCAASGRAASGHGHYGMGWFRQVPGKEREFVAAIRWSGKETWYKDSVKGRFTISRDNAKTTVYLQMNSLKGEDTAVYYCAARPVRVADISLPVGFDYWGQGTQVTVSS
B1: the binding result is reported as “no binding (tested: 5 µg/mL)”.
